The results in this text go back to paper PMC10516904, “Dual enzyme-powered chemotactic cross β amyloid based functional nanomotors” (Nature Communications, 2023).

This data set concerns the molecule itself. Briefly: TEM, SEM, AFM, CD and FTIR of the assembled peptide; peptide assembled in 40% acetonitrile/water with 0.1% TFA for a month.

B1: Ac-KLVFFAL-CONH2 (peptide)
peptide: Ac-KLVFFAL-NH2
notes: also called Ac-KL nanotubes; amylobots (chassis); source: short nanotubes by probe sonication
Take B1: the binding result is “binds”.
